Test results published in US20210388087A1 (Chugai, published 2021).
Changes are numbered by the printed parent chain. Names and notes keep the numbering of the source. Blank lines part the entries; values can stand above or below the binder they belong to.

Biological target: T1, Human CD137 ECD (human)
T1 construct: also called 4-1BB
Test: single mutant vs template dBBDu183H

T1 sequence (chain, as listed by the source limits assumed): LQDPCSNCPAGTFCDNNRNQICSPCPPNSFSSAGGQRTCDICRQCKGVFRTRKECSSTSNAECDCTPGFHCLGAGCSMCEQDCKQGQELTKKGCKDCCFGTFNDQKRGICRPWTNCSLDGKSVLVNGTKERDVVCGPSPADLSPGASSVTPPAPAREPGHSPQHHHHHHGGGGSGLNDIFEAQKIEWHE

- fold change of affinity: 1.4 fold
B1: H183/L072 VH M34I (antibody, name in Kabat numbering, V domains shown)
VH: QVQLVESGGGLVQPGRSLRLSCAASGFTFSNAWIHWVRQAPGKGLEWVAQIKDKGNAYAAYYAPSVKGRFTISRDDSKNSIYLQMNSLKTEDTAVYYCHYVHYASASTVLPAFGVDAWGQGTTVTVSS
VL: DIVMTQSPLSLPVTPGEPASISCQASQELVHMNRNTYLHWYQQKPGQAPRLLIYKVSNRFPGVPDRFSGSGSGTDFTLKISRVEAEDVGVYYCAQGTSVPFTFGQGTKLEIK

- fold change of affinity: 0.5 fold
B2: H183/L072 VH N31T (antibody, name in Kabat numbering, V domains shown)
VH: B1 VH with N31T, I34M
VL: B1 VL

- fold change of affinity: 1.8 fold
B3: H183/L072 VH M34L (antibody, name in Kabat numbering, V domains shown)
VH: B1 VH with I34L
VL: B1 VL

- fold change of affinity: 0.4 fold
B4: H183/L072 VH N31H (antibody, name in Kabat numbering, V domains shown)
VH: B1 VH with N31H, I34M
VL: B1 VL

- fold change of affinity: 0.3 fold
B5: H183/L072 VH N31S (antibody, name in Kabat numbering, V domains shown)
VH: B1 VH with N31S, I34M
VL: B1 VL

- fold change of affinity: 0.3 fold
B6: H183/L072 VH N31A (antibody, name in Kabat numbering, V domains shown)
VH: B1 VH with N31A, I34M
VL: B1 VL

- fold change of affinity: 0.3 fold
B7: H183/L072 VH N31I (antibody, name in Kabat numbering, V domains shown)
VH: B1 VH with N31I, I34M
VL: B1 VL

- fold change of affinity: 0.5 fold
B8: H183/L072 VH P100eA (antibody, name in Kabat numbering, V domains shown)
VH: B1 VH with I34M, P111A
VL: B1 VL

- fold change of affinity: 0 fold
B9: H183/L072 VH N31Y (antibody, name in Kabat numbering, V domains shown)
VH: B1 VH with N31Y, I34M
VL: B1 VL

- fold change of affinity: 0.3 fold
B10: H183/L072 VH Q50D (antibody, name in Kabat numbering, V domains shown)
VH: B1 VH with I34M, Q50D
VL: B1 VL

- fold change of affinity: 0.8 fold
B11: H183/L072 VH P61A (antibody, name in Kabat numbering, V domains shown)
VH: B1 VH with I34M, P64A
VL: B1 VL

- fold change of affinity: 0.6 fold
B12: H183/L072 VH P61L (antibody, name in Kabat numbering, V domains shown)
VH: B1 VH with I34M, P64L
VL: B1 VL

- fold change of affinity: 0.3 fold
B13: H183/L072 VH M34P (antibody, name in Kabat numbering, V domains shown)
VH: B1 VH with I34P
VL: B1 VL

- fold change of affinity: 0.4 fold
B14: H183/L072 VH N31P (antibody, name in Kabat numbering, V domains shown)
VH: B1 VH with N31P, I34M
VL: B1 VL

- fold change of affinity: 0.8 fold
B15: H183/L072 VH Q50K (antibody, name in Kabat numbering, V domains shown)
VH: B1 VH with I34M, Q50K
VL: B1 VL

- fold change of affinity: 0 fold
B16: H183/L072 VH P100eI (antibody, name in Kabat numbering, V domains shown)
VH: B1 VH with I34M, P111I
VL: B1 VL

- fold change of affinity: 0.3 fold
B17: H183/L072 VH N31L (antibody, name in Kabat numbering, V domains shown)
VH: B1 VH with N31L, I34M
VL: B1 VL

- fold change of affinity: 1 fold
B18: H183/L072 VH M34V (antibody, name in Kabat numbering, V domains shown)
VH: B1 VH with I34V
VL: B1 VL

- fold change of affinity: 0.2 fold
B19: H183/L072 VH N31Q (antibody, name in Kabat numbering, V domains shown)
VH: B1 VH with N31Q, I34M
VL: B1 VL

- fold change of affinity: 0.2 fold
B20: H183/L072 VH N31V (antibody, name in Kabat numbering, V domains shown)
VH: B1 VH with N31V, I34M
VL: B1 VL

- fold change of affinity: 0 fold
B21: H183/L072 VH P100eL (antibody, name in Kabat numbering, V domains shown)
VH: B1 VH with I34M, P111L
VL: B1 VL

- fold change of affinity: 0 fold
B22: H183/L072 VH P100eM (antibody, name in Kabat numbering, V domains shown)
VH: B1 VH with I34M, P111M
VL: B1 VL

- fold change of affinity: 0.3 fold
B23: H183/L072 VH N31G (antibody, name in Kabat numbering, V domains shown)
VH: B1 VH with N31G, I34M
VL: B1 VL

- fold change of affinity: 0.6 fold
B24: H183/L072 VH Q50H (antibody, name in Kabat numbering, V domains shown)
VH: B1 VH with I34M, Q50H
VL: B1 VL

- fold change of affinity: 0.5 fold
B25: H183/L072 VH P61I (antibody, name in Kabat numbering, V domains shown)
VH: B1 VH with I34M, P64I
VL: B1 VL

- fold change of affinity: 2.6 fold
B26: H183/L072 VH Q50F (antibody, name in Kabat numbering, V domains shown)
VH: B1 VH with I34M, Q50F
VL: B1 VL

- fold change of affinity: 0.8 fold
B27: H183/L072 VH Q50L (antibody, name in Kabat numbering, V domains shown)
VH: B1 VH with I34M, Q50L
VL: B1 VL

- fold change of affinity: 0.6 fold
B28: H183/L072 VH P61M (antibody, name in Kabat numbering, V domains shown)
VH: B1 VH with I34M, P64M
VL: B1 VL

- fold change of affinity: 0.2 fold
B29: H183/L072 VH N31F (antibody, name in Kabat numbering, V domains shown)
VH: B1 VH with N31F, I34M
VL: B1 VL

- fold change of affinity: 0 fold
B30: H183/L072 VH N53Y (antibody, name in Kabat numbering, V domains shown)
VH: B1 VH with I34M, N56Y
VL: B1 VL

- fold change of affinity: 0.5 fold
B31: H183/L072 VH Q50E (antibody, name in Kabat numbering, V domains shown)
VH: B1 VH with I34M, Q50E
VL: B1 VL

- fold change of affinity: 0 fold
B32: H183/L072 VH M34Y (antibody, name in Kabat numbering, V domains shown)
VH: B1 VH with I34Y
VL: B1 VL

- fold change of affinity: 0.3 fold
B33: H183/L072 VH N31W (antibody, name in Kabat numbering, V domains shown)
VH: B1 VH with N31W, I34M
VL: B1 VL
